The results in this text go back to US20240325557A1 (INNATE PHARMA, published 2024).

The target in one assay is T1, human Nectin-4 Mutant 3 (human, UniProt Q96NY8 32-510).
T1 construct: Expressed on transfected HEK-293T cells; also called A76S/Q77R/E78A/S91N
T1 chain: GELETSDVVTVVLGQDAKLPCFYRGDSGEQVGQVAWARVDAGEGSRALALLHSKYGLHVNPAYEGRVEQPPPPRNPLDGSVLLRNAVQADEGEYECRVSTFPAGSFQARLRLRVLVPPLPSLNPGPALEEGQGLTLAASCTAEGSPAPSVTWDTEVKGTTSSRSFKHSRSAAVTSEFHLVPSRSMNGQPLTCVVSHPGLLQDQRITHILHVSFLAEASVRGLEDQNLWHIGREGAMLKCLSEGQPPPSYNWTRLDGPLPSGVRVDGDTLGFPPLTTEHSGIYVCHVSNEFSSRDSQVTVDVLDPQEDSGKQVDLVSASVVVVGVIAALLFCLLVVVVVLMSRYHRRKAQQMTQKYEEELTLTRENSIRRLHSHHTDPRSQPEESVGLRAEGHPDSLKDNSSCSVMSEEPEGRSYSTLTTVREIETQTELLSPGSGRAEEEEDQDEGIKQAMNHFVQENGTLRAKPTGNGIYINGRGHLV
In words: binding to HEK-293T cells transfected with the Nectin-4 mutant.

In assay [1] the target is T2, wild-type human Nectin-4 on the CHO huNectin4 Cl.3C8 cell line (human, UniProt Q96NY8 32-510).
T2 construct: also called whole Nectin-4 protein; huNectin4 CI.3C8
T2 sequence: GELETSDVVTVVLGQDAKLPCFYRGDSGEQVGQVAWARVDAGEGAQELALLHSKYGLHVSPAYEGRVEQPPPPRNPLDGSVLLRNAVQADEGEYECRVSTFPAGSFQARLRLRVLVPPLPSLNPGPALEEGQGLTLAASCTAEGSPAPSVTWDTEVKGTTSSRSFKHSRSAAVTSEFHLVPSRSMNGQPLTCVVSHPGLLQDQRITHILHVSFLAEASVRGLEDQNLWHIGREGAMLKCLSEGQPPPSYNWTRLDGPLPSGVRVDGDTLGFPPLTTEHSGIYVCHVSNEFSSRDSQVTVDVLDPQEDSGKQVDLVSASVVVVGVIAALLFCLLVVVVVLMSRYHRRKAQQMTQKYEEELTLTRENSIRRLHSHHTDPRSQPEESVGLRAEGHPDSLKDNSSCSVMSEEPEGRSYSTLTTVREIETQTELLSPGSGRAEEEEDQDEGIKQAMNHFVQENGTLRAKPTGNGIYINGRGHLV
As to the kind of experiment: flow cytometry on wild-type human Nectin-4 cell line. For orientation: In flow cytometry, cells or beads pass a laser one at a time.

The target in assay [2] is T3, human Nectin 1 on CHO cells (human, UniProt Q15223 31-517).
T3 sequence: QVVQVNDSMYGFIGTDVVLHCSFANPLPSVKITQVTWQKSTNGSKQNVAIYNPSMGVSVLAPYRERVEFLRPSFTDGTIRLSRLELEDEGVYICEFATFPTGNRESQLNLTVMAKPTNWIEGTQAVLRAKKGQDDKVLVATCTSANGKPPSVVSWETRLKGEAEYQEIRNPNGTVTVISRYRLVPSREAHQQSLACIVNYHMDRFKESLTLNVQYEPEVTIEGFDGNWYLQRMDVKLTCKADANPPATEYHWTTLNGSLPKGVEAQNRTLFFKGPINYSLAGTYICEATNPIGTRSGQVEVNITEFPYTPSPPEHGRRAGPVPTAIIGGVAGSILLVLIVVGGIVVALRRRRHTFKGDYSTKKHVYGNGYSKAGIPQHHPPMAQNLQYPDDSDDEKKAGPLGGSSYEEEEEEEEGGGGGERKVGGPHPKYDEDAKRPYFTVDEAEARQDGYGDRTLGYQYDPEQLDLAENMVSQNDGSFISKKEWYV
As to the kind of experiment: flow cytometry on CHO cells expressing human Nectin 1. The procedure:
(§1) Anti-Nectin-4 antibodies were tested by flow cytometry for binding to different CHO cell lines made to express respectively the human Nectin 1, Nectin 2, Nectin 3 and PVR proteins. The expression of each cell lines was controlled and validated with known respectively the anti-human Nectin1, anti-human Nectin2, anti-human Nectin3 and anti-human PVR antibodies. The mature amino acid sequence of the proteins expressed by the cells were as follows:
(§2) Nectin 1, Nectin 2, Nectin 3 and PVR proteins as in Example 12. […] Epitope mapping was carried out by assessing competition for binding to Nectin-4 by SPR as in Example 14.

Assay [3] addresses T4, human Nectin 2 on CHO cells (human, UniProt Q92692 32-538).
T4 sequence: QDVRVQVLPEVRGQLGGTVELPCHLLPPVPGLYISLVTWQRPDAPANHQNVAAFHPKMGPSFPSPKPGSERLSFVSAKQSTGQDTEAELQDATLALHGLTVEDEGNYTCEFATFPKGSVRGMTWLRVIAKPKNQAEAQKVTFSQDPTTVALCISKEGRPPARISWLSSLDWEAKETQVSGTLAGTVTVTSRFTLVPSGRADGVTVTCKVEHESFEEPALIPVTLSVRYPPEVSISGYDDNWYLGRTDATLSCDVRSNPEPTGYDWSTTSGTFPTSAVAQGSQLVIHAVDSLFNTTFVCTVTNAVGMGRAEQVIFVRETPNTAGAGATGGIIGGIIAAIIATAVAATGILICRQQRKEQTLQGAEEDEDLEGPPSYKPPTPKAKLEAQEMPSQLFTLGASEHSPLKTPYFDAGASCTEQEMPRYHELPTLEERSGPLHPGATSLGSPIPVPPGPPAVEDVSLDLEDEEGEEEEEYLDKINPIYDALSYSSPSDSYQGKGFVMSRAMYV
In words: flow cytometry on CHO cells expressing human Nectin 2. How it is done:
as §1, §2

The target in a further assay is T5, human PVR on CHO cells (human, UniProt P15151 28-417).
T5 construct: also called PVR (Nectin-5)
T5 sequence: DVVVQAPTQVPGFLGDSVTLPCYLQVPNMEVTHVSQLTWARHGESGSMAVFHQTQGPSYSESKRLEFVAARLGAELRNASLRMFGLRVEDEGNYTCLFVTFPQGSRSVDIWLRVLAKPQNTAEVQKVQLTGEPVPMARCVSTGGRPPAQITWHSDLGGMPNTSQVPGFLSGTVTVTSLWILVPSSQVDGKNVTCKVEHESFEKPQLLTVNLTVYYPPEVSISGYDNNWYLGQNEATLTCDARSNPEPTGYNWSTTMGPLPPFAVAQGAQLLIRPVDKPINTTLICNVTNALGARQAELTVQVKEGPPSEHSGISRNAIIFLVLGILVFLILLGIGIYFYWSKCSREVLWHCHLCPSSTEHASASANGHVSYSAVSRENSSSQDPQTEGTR
In words: flow cytometry on CHO cells expressing human PVR. How it is done: as §1, §2

Assay [4] addresses T6, huNectin4-C1C2-V5 (C1C2 construct, lacking the Ig-like V domain) (human, UniProt Q96NY8 148-510).
T6 construct: Expressed on CHO cells; also called Hu-Nectin4 IgC1C2-V5; Nectin4-C1C2-V5 sorted cells
T6 sequence: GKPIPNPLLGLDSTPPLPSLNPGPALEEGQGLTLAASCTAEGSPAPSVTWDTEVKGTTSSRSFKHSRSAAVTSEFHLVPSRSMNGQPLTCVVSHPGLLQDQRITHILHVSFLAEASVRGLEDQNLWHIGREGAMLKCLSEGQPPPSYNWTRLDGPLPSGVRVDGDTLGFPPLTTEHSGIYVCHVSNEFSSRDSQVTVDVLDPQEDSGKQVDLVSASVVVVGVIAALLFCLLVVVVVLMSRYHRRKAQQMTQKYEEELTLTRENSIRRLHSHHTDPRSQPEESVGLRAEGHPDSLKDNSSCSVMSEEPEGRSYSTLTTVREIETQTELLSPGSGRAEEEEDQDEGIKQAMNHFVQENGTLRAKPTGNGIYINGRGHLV
In words: flow cytometry on Nectin4-C1C2-V5 sorted cells.

The next assay deals with T7, human Nectin-4 Mutant 1 (human, UniProt Q96NY8 32-510).
T7 construct: Expressed on transfected HEK-293T cells; also called S58P/G59D/Q61A/N106D/P107A
T7 chain: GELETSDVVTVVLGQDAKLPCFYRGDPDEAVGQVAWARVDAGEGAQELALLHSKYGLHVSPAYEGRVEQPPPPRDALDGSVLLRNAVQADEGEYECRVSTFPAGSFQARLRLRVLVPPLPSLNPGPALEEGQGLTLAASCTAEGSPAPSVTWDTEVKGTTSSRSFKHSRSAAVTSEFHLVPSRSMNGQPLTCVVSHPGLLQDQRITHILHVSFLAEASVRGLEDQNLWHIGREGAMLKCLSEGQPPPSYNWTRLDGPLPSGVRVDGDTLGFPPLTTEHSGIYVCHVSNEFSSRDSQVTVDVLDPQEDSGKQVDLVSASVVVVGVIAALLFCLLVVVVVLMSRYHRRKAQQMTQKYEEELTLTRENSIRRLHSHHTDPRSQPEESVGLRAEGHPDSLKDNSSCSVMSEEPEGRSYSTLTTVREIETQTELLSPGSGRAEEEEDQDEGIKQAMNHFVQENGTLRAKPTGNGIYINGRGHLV
As to the kind of experiment: binding to HEK-293T cells transfected with the Nectin-4 mutant.

Assay [5] concerns the target T8, monomeric huNectin4-his-BirA protein (human, UniProt Q96NY8 32-349).
T8 construct: also called Human Nectin4-His-BirA; huNectin4-BirA
T8 sequence: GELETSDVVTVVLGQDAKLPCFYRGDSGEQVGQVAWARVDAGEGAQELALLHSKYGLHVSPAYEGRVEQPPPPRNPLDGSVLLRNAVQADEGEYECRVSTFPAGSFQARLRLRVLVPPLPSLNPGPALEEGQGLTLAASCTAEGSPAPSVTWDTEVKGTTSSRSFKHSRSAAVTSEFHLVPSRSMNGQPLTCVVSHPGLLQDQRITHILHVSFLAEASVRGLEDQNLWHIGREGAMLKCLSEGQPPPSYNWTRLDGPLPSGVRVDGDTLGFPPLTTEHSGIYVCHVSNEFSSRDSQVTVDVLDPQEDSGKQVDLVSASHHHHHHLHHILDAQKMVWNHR
In words: SPR (Biacore T200), antibody captured on Protein A, monomeric huNectin4-his-BirA injected. How it is done:
Antibodies were tested for binding affinity to the wild-type human Nectin-4 protein by SPR (Surface Plasmon Resonance) methods. Measurements were performed on a Biacore T200 apparatus (Biacore GE Healthcare) at 25° C. Sensorgrams were analyzed with Biacore T100 Evaluation software. A CMR Sensor Chip with immobilized Protein A at about 600 RU was used. Anti-Nectin-4 antibodies were captured onto the Protein-A chip (antibodies diluted to 1 μg/ml in HBS-EP+1× buffer and injected over 120s at 40 μL/min). […] The chip was regenerated with NaOh 10 mM 2× for 30s at 40 μl/min. The sensorgram sets were fitted using the 1:1 kinetic binding model or two state reaction model, as a function of the profile of the curves.
On the technique in general: SPR reads the build-up and loss of mass on a sensor chip optically.

Assay [6] addresses T6, huNectin4-C1C2-V5 (C1C2 construct, …). As to the kind of experiment: flow cytometry on huNectin4-C1C2-V5 CHO cells. The procedure:
The characterization of the binding of the antibodies on Nectin-4 domains was performed by flow cytometry using cells made to express the wild-type human Nectin-4 protein and cells made to express a modified Nectin-4 having the Ig-like C₂ type 1 and the Ig-like C₂ type 2 domains and lacking the Ig-like V domain (the C1C2 construct). The latter protein additionally bears a V5 tag for flow cytometry cell sorting, and cells were used as Nectin4-C1C2-V5 sorted cells.

A word on the Kd: it is the concentration at which binding is half-saturated. What is called koff is a measure of how fast the partners let go of each other. Read a low koff as a long-lived complex. Usually kon stands for the second-order rate constant of association. Low values mean slower complex formation, high ones faster complex formation.

B1: antibody 6C11B (antibody, human IgG1, V domains shown)
VH: EVQLQQSGPELVKPGASVKISCKTSGYTFTEYTIHWVKQNHGKSLEWIGRINPKNGDIIHNQNFMGKATLTVDKSSSTAYMELRSLTSEDSAVCYCARSGYGSSYGFAYWGQGTLVTVSA
VL: DIVMTQSPTSLVVSLGQRATISCRASQSVTTPRYSYMHWYQQKPGQPPKLLIKYASNLESGVPARFSGSGSGTDFTLNIHPVEEEDTATYYCQHSWEIPYTFGGGTKLEIK
notes: also called 6CB11; CHG1-M-4N4-6C11B
For B1, the binding result is on record as “no binding” with human Nectin-4 Mutant 3; “binds” in assay [1]; “no binding” in [2]; “no binding” in assay [3]; “no binding” in the assay with human PVR on CHO cells; “binds” in assay [4].

B2: antibody N41 (antibody, V domains shown)
VH: QVQLKQSGPGLVQPSQSLSITCTVSGFSLTNYGVHWVRQSPGKGLEWLGVIWSGGSTDYNAAFISRLSISKDTSKSQVFFKMNSLQADDTAIYYCARELIHAMDNWGQGTSVTVSS
VL: DIQMTQSPASLSVSVGETVTITCRASENIYSNLAWYQQKQGNSPQLLVFAATNLADGVPSRFSGSGSGTQYSLKINSLQSEDFGTYYCQHFWGTPTFGGGTKLEIK
notes: Comparator anti-Nectin-4 antibody
Consider B2, for which the binding result with human Nectin-4 Mutant 1 is recorded as “no binding”. In [5], this molecule displayed a Kd of 1.5 nM, a koff of 0.00087 s⁻¹ and a kon of 580000 M⁻¹ s⁻¹. In addition, the binding result in [6] is “no binding”.
